Numbering of substitutions follows the chain as printed.
T1: human lysozyme (human, UniProt P61626 19-148)
T1 construct: Bought; passed through Superdex 75 before SPR
T1 sequence (looked up): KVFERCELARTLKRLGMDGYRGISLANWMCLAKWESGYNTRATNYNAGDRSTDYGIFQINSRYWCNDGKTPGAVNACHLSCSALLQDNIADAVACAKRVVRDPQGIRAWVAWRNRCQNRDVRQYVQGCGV

B1: HVHAm302 (antibody, V domains shown)
VH: QVQLVESGGGLIKPGGSLRLSCAASGDTVSDESMTWVRQAPGKGLEWVSAISSSGGSTYYADSVKGRFTISRDNSKNTVYLQMNSLRAEDTAVYYCVTDNRSCQTSLCTSTTRSWGQGTMVTVSS
notes: Human VH single-domain antibody (wild-type), tested alone; monomer peak used for SPR; tag not specified
B2: HVHAm302S (antibody, V domains shown)
VH: B1 VH with S49C, I70C
notes: Cys49/Cys69 (Kabat) mutant of HVHAm302; VH single-domain antibody; tag not specified
B3: HVHAm427 (antibody, V domains shown)
VH: QVQLVESGGGLIKPGGSLRLSCAASGVTLSPECMAWVRQAPGKGLEWVSAISSSGGSTYYADSVKGRFTISRDNSKNTVYLQMNSLRAEDTAVYYCVSCEGENAFWGQGTMVTVSS
notes: Human VH single-domain antibody (wild-type), tested alone; tag not specified
B4: HVHAm427S (antibody, V domains shown)
VH: B3 VH with S49C, I70C
notes: Cys49/Cys69 (Kabat) mutant of HVHAm427; VH single-domain antibody; tag not specified
B5: HVHAm431 (antibody, V domains shown)
VH: QVQLVESGGGLIKPGGSLRLSCAASGYTVSSECMGWVRQAPGKGLEWVSAISSSGGSTYYADSVKGRFTISRDNSKNTVYLQMNSLRAEDTAVYYCVRDSKNCHDKDCTRPYCSWGQGTMVTVSS
notes: as for B3
B6: HVHAm431S (antibody, V domains shown)
VH: B5 VH with S49C, G55S, I70C
notes: Cys49/Cys69 (Kabat) mutant of HVHAm431; VH single-domain antibody; tag not specified
B7: HVHPC235 (antibody, V domains shown)
VH: QVQLVESGGGLIKPGGSLRLSCAASGFSVISESMTWVRQAPGKGLEWVSAISSSGGSTYYADSVKGRFTISRDNSKNTVHLQMNSLRADDTAVYYCAAKKIDGARYDYWGQGTMVTVSS
notes: Human VH single-domain antibody (wild-type), tested alone; tag not specified; also called HVHAmC235; HVHC235
B8: HVHPC235S (antibody, V domains shown)
VH: B7 VH with S49C, I70C, D89E
notes: Cys49/Cys69 (Kabat) mutant of HVHPC235; VH single-domain antibody; tag not specified; also called HVHAmC235S; HVHP235S
B9: HVHB82S (antibody, V domains shown)
VH: QVQLQESGGGLVQPGGSLRLSCAASGFTFSSYAMSWVRQAPGKGLEWVCAISGSGGSTYYADSVKGRFTCSRDNSKNTLYLQMNSLRAEDTAVYYCGTDMEVWGKGTTVTVSS
notes: Cys49/Cys69 (Kabat) mutant of HVHB82; VH single-domain antibody; tag not specified
B10: HVHP421S (antibody, V domains shown)
VH: QLQLQESGGGVVQPGRSLRLSCAASGFTFSSYAMSWVRQAPGKGLEWVCAISGSGGSTYYADSVKGRFTCSRDNSKNTLYLQMNSLRAEDTAVYYCAKDGKGGSSGYDHPDYWGQGTLVTVSS
notes: Cys49/Cys69 (Kabat) mutant of HVHP421; VH single-domain antibody; tag not specified
B11: HVHP419S (antibody, V domains shown)
VH: QLQLQESGGGLVQPGGSLRLSCAASGFTFSSYAMSWVRQAPGKGLEWVCAISGSGGSTYYADSVKGRFTCSRDNSKNSLYLQMNSLGAEDTAVYYCARSWSGSSYGGDLDSWGQGTLVTVSS
notes: Cys49/Cys69 (Kabat) mutant of HVHP419; VH single-domain antibody; tag not specified
B12: HVHP430S (antibody, V domains shown)
VH: QVQLVESGGGLIKPGGSLRLSCAASGFTFSNYAMSWVRQAPGKGLEWVCAISSSGGSTYYADSVKGRFTCSRDNSKNTVYLQMNSLRAEDTAVYYCVREEYRCSGTSCPGAFDIWGQGTMVTVSS
notes: Cys49/Cys69 (Kabat) mutant of HVHP430; VH single-domain antibody; tag not specified
B13: HVHP429S (antibody, V domains shown)
VH: EVQLVESGGTLVQPGGSLRLSCAASGFTFINYAMSWVRQAPDKGLDWVCTISNNGGATYYADSVKGRFTCSRDNSNNTLYLQMNSLRPDDTAVYYCAKGPINTGRYGDWGQGTLVTVSS
notes: Cys49/Cys69 (Kabat) mutant of HVHP429; VH single-domain antibody; tag not specified
B14: HVHM41S (antibody, V domains shown)
VH: QVQLVQSGGGLVQPGRSLRLSCAASGFAFSSYAMSWVRQAPGKGLEWVCAISGGGDHTYYADSVKGRFTCSRDNSKNTLYLQMNSLRAEDTAVYYCAKEGMVRGVSSAPFDYWGQGTLVTVSS
notes: Cys49/Cys69 (Kabat) mutant of HVHM41; VH single-domain antibody; tag not specified
B15: HVHM81S (antibody, V domains shown)
VH: EVQLVQSGGGLVQPGRSLRLSCAASGFTFDDYAMHWVRQAPGKGLEWVCGISGSGASTYYADSVKGRFTCSRDNSKNTLYLQMNSLRAGDTALYYCARQSITGPTGAFDVWGQGTMVTVSS
notes: Cys49/Cys69 (Kabat) mutant of HVHM81; VH single-domain antibody; tag not specified
B16: HVHP428S (antibody, V domains shown)
VH: QLQLQESGGGLVQPGGSLRLSCAASGFTFSSYAMSWFRQAPGKGLEWVCFIRSKAYGGTTEYAASVKGRFTCSRDDSKSIAYLQMNSLRAEDTAMYYCARRAKDGYNSPEDYWGQGTLVTVSS
notes: Cys49/Cys69 (Kabat) mutant of HVHP428; VH single-domain antibody; tag not specified
B17: HVHP420S (antibody, V domains shown)
VH: QVQLVESGGGLVKPGGSLRLSCAASGFTFSNAWMTWVRQAPGKGLEWVCRIKTKTDGGTTDYAAPVKGRFTCSRDDSKNTLYLQMNSLKTEDTAVYYCTTDRDHSSGSWGQGTLVTVSS
notes: Cys49/Cys69 (Kabat) mutant of HVHP420; VH single-domain antibody; tag not specified
B18: HVHP414S (antibody, V domains shown)
VH: DVQLVQSGGGLVKPGGSLRLSCTASGFPFSNAWMSWVRQAPGKGLEWVCRITSKTDGGTTDYVAPVKGRFTCSRDDSKNTLYLQMNSLKTEDTAVYYCTTDQANAFDIWGQGTMVTVSS
notes: Cys49/Cys69 (Kabat) mutant of HVHP414; VH single-domain antibody; tag not specified
B19: HVHP413S (antibody, V domains shown)
VH: QVQLVQSGGGLVKPGGSLRLSCAASGFTFSDYYMSWVRQAPGKGLEWVCFIYSGGSTYYADSVKGRFTCSRDNSKNTLYLQMNSLRAEDTAVYYCARESRVGGGAFDIWGQGTMVTVSS
notes: Cys49/Cys69 (Kabat) mutant of HVHP413; VH single-domain antibody; tag not specified
B20: HVHP426S (antibody, V domains shown)
VH: QVQLVQSGGGVVQPGRSLRLSCAASGFIVDGYAMHWVRQAPGQGLEWVCVTNNGGSTSYADSVKGRFTCSRDNSKNTVYLQMNSLRAEDTAVYYCARQSITGPTGAFDIWGQGTMVTVSS
notes: Cys49/Cys69 (Kabat) mutant of HVHP426; VH single-domain antibody; tag not specified
B21: HVLHLRN (antibody, V domains shown)
VL: DIQMTQSPSSLSASVGDRVTITCKASQGIRNRLYWYQQKPGKAPKLLCFPASILDSGVPSRFSCSGSGTDFTLTISNLQPEDFATYYCAQQPGLPNSRTFGHGTKVTVL
notes: Anti-human lysozyme VL single-domain antibody from the HVLP324S library (Cys48/Cys64); not shown: C-terminal His6 tag
B22: HVLHLNN (antibody, V domains shown)
VL: DIQMTQSPSSLSASVGDRVTITCSASQSINNRLYWYQQKPGKAPKLLCFPASFLFSGVPSRFSCSGSGTDFTLTISNLQPEDFATYYCQQSYSTPRTFGHGTKVTVL
notes: as for B21
B23: HVLHLDS (antibody, V domains shown)
VL: B22 VL with S24T, A25V, S28G, N30D, N31S, F53L, F55E
notes: as for B21
B24: HVLHLNE (antibody, V domains shown)
VL: B22 VL with S24D, N31E, F53I, F55T, Q89R, S91P, Y92R, T94G, R96S
notes: as for B21
B25: HVLHLEM (antibody, V domains shown)
VL: DIQMTQSPSSLSASVGDRVTITCQASQGIEMFLQWYQQKPGKAPKLLCFAASTLQSGVPSRFSCSGSGTDFTLTISNLQPEDFATYYCVQPGVAPPPGTFGHGTKVTVL
notes: as for B21
B26: HVLHLAQ (antibody, V domains shown)
VL: DIQMTQSPSSLSASVGDRVTITCGASQSIAQRLYWYQQKPGKAPKLLCFPASLLHSGVPSRFSCSGSGTDFTLTISNLQPEDFATYYCAQRASPPRPTFGHGTKVTVL
notes: as for B21
B27: HVLHLQI (antibody, V domains shown)
VL: DIQMTQSPSSLSASVGDRVTITCRASQSIQIMLDWYQQKPGKAPKLLCFGASFLISGVPSRFSCSGSGTDFTLTISNLQPEDFATYYCRQTWTPPAPTFGHGTKVTVL
notes: as for B21
B28: HVLHLYS (antibody, V domains shown)
V domain: DIQMTQSPSSLSASVGDRVTITCQASQSIYSKLYWYQQKPGKAPKLLCFPASLLWSGVPSRFSCSGSGTDFTLTISNLQPEDFATYYCLQNAADPHRTFGHGTKVRL
notes: as for B21

Key:
protein A [1] = biological target: T2, protein A (UniProt P38507 37-477); experiment: SPR (Biacore 3000), VH over immobilized protein A
T2 construct: Bought (Pierce); immobilized on CM5 chip by amine coupling; also called recombinant protein A
Protocol: Immobilizations were carried out at 50 μg/mL in 10 mM acetate buffer, pH 4.5, using the amine coupling kit supplied by the manufacturer (GE Healthcare). All measurements were carried out at 25° C. in HBS-EP buffer at a flow rate of 50 μL/min. Surfaces were regenerated by washing with the running buffer.

protein A [2] = biological target: T2, protein A; experiment: SPR, KD of the mutant against KD of the wild-type VH on protein A
protein A [3] = biological target: T2, protein A; experiment: SPR (Biacore 3000), VH over immobilized protein A; value in parentheses obtained with higher concentration of monomer (footnote d)
Protocol: For mutant VHs (HVHP44S, HVHB82S, HVHP421S, HVHP419S, HVHP430S, HVHP429S, HVHM81S, HVHP428S, HVHP420S, HVHM41S, HVHP423S, HVHP413S, HVHP426S, and HVHP414S), approximately 1,170 RUs and 1,240 RUs of recombinant protein A and ovalbumin (reference protein), respectively, were immobilized on research grade sensor chip CMS. Immobilizations were carried out at 50 μg/mL in 10 mM acetate buffer (pH 4.5 for both protein A and ovalbumin) using the amine coupling kit supplied by the manufacturer. All measurements were carried out at 25° C. in HBS-EP buffer at a flow rate of 20 μL/min or 40 μL/min for HVHB82S, HVHP421S, HVHP429S, HVHM41S, HVHM81S, HVHP423S, HVHP413S, HVHP426S, and HVHP414S or HVHP44S, HVHP419S, HVHP430S, HVHP428S, and HVHP420S, respectively. The protein A binding property of the wild-type counterparts were determined previously (To et al 2005).

human lysozyme = biological target: T1, human lysozyme; experiment: SPR (Biacore 3000), human lysozyme over immobilized VL
Protocol: The affinities (KDs) of the anti-human lysozyme VLs to their antigen, human lysozyme, was also determined. The binding of human lysozyme to immobilized anti-human lysozyme VL binders was determined by surface plasmon resonance (SPR) using BIACORE 3000 (GE Healthcare). […] Immobilizations were carried out at concentrations of 10 μg/mL in 10 mM acetate at pH 4.5 using the amine coupling kit supplied by the manufacturer. Human lysozyme was passed through a Superdex 75 column (GE Healthcare) in HBS-EP buffer (10 mM HEPES, pH 7.4, 150 mM NaCl, 3 mM EDTA and 0.005% P20 surfactant) with flow rate of 0.5 mL/min to eliminate any possible aggregates prior to Biacore analysis. For the binding studies, analyses were carried out at 25° C. in 10 mM HEPES, pH 7.4 containing 150 mM NaCl, 3 mM EDTA and 0.005% surfactant P20. The flow rates used were 20 μL/min. For regeneration the surfaces were washed for 15 min with the running buffer. Data were analyzed with BIAevaluation 4.1 software. From the SPR profiles (FIG. 15), it can be seen that the anti-human lysozyme VLs indeed bind to their target antigen, lysozyme, confirming the binding results obtained by phage ELISA.

Row | Binder | Kd (protein A [1]) [nM] | further results
1 | B1 | 3000 | –
2 | B2 | 10000 | –
3 | B3 | 1600 | –
4 | B4 | 4000 | –
5 | B5 | 4000 | –
6 | B6 | 8000 | –
7 | B7 | 300 | –
8 | B8 | 3000 | fold reduction in protein A binding (increase in KD) against wild-type HVHPC235 (protein A [2]): 10 fold
9 | B9 | 1200 | –
10 | B10 | 2800 | –
11 | B11 | 4800 | Kd (protein A [3]): 3200 nM
12 | B12 | 7700 | –
13 | B13 | 5500 | Kd (protein A [3]): 3400 nM
14 | B14 | 1500 | Kd (protein A [3]): 1800 nM
15 | B15 | 2100 | fold reduction in protein A binding (increase in KD) against wild-type HVHM81 (protein A [2]): 1.6 fold
16 | B16 | 1600 | –
17 | B17 | 2200 | –
18 | B18 | 1800 | –
19 | B19 | 1500 | –
20 | B20 | 3400 | –
21 | B21 | – | Kd (human lysozyme): 50 nM
22 | B22 | – | Kd (human lysozyme): 200 nM
23 | B23 | – | Kd (human lysozyme): 6100 nM
24 | B24 | – | Kd (human lysozyme): 60 nM
25 | B25 | – | Kd (human lysozyme): > 73000 nM
26 | B26 | – | Kd (human lysozyme): 200 nM
27 | B27 | – | Kd (human lysozyme): 2600 nM
28 | B28 | – | Kd (human lysozyme): 6400 nM

From patent US20170044238A1 (NATIONAL RESEARCH COUNCIL OF CANADA, published 2017)
